Results on 16 sequences are retold here after the nanobody polyreactivity screen of Harvey et al. (2022).

The nature of the data set: yeast display, Sf9 membrane polyspecificity reagent, FACS + sequencing; frameworks hold sequencing errors. The procedure, abridged: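 Genes from sorted yeast were amplified by colony PCR, read by MiSeq 2 × 250 sequencing and filtered on CDR length. These cells carried a synthetic nanobody library in Saccharomyces cerevisiae BJ5465 and were sorted by FACS into low and high (top ~1%) gates on anti-HA and streptavidin fluorescence. Polyreactivity is labelled according to the gate of origin.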
As for “QVQLVESGGGLVQAGCSLRLSCAASGITFVYYAMGRYRQAAGKERELVAAITTGGSTNYADSVKGRFTISRDNAKYTVYLQMNSLKPEDTAVYYCNKRPVILYDYWGQGTQVTVSS”, the “polyreactivity (PSR sort gate)” value is reported as “low polyreactivity”.
In the case of “QVQLVESGGGLVQAGGSLRLSCAASGRIFPDNTLGWYRQAPGKERELVAVITYSGGSTYYADSVKGRFTISRDNAKNTVYLQMNSLKPEDTAVYYCAARDYYIWFAEVDSWGQGTQVTVSS” it was “low polyreactivity”; in that of “QVQLVESGGGLVQAGGSLRLSCAASGRIFYGYAMGWYRQAPGKERELVAAISSGGITYYADSVKGRFTISRDNAKNTVYLQMNSLKPEDTAVYYCAATVLGDYEYWGQGTQVTVSS”, “low polyreactivity”; in that of “QVQLEESGGGLVQAGGSLRISCAAYGRTLRQYALGWYRQAPGKERELVAAISRGGSTTYADSVKGRFTISRDNAKNTVYLQMNSLKPEDTAVYYCAAVSSKGNRHEYDYWGQGTQVTVSS”, “low polyreactivity”.
In the case of “QVQLVESGGGLVQAGGSLRLSCAASGRIFGNNVMGWYRQAPGKERELVASINYSGRTYYADSVKGRFTISRDNAKNTVYLQMNSLKPEDTAVYYCAARRYAWFYPYVTYDYWGQGTQVNVSS” it was “high polyreactivity”; in that of “QVQLVESGGGLVQAGGSLRLSCAASGGIFVYYAMGWYRQAPGKERELVAAISSGGTTNYADSVKGRFTISRDNAKNTVYLQMNSLKPEDTAVYYCAIYVSWPLYYYWGQGTQVTVSS”, “low polyreactivity”.
Turning to “QVQLVESGGGLVQAGGSLRLSCAASGRIFYSNVMGWYRQAPGKERELVAAIRFSGGGTYYADSVKGRFTITRDNAKNTVYLQMNSLKPEDTAVYYCAAEYYLRVSGRTYVTSHDYWGQGTQVTVSS”, the “polyreactivity (PSR sort gate)” value is on record as “high polyreactivity”.
Then “QVRLVETGGGLVQAGGSLRLSCAASGSIFLIYDMGWYRQAPGKEMELVAAISNSVGSTYADSVKGRFTMSRDNAKNTVYLQMNSLKPEDTAVYYCNADYGPIDGRGGYWGQGTQVTVSS”, with “low polyreactivity”; and “QVQLVESGGCLVQAGCSLRLSCAASGGTFDVNAMGWYRQAPGKERELVAAITWSGGNTYYADSVKGRFTISRDNAKNTVYLQMNSLKPEDTAVYYCATDFSPVYYTRYDYWGQGTQVTVSS”, with “low polyreactivity”.
Then “QVQLVESGGGLVQAGGSLRLSCAASGSTLFTYAMGWYRQAPGKERELVAAITSSGSTYYADSVKGRFTISRDNAKNTVYLQMNSLKPEDTAVYYCAVPGYRYTKYYYWGQGTQVTVSS”, with “low polyreactivity”; and “QVQLVESGGGLVQAGGSLRLSCAASGSTFGWYAMGWYRQAPGKERELVASISRSGGRTFYADSVKGRFTISRDNAKNTVYLQMNRLKPEDTAVYYCAADALIYYKGSPDYYWGQGTQVNVSS”, with “high polyreactivity”; and “QVQLVESGGGLVQAGGSLRLSCAASGSILGDNAMGWYRQAPGKERELVAAISYRGGSTYADSVKGRFTISRDNAKNTVYLQMNRLKPEDTAVYYCNITDIDDSQYREYEYWGQGTQVTVSS”, with “low polyreactivity”.
In the case of “QVQLVASGGGLVQSGGSLRLSCAASGFIFAYYAMGWYRQAPGTERELVAAISRGGRPYYADSVKGRFTISRDNAKNTVYFQMNSLKPEDTAVYYCAARRWRRYQSGGSYSGMDHWGQGTQVTVSS” it was “high polyreactivity”; in that of “QVQLVDSGGCLVQAGGSLRLSCDASGRISQNAMGWYRQAPGKERELVAAITFSGGSTYYADSVKGRFTISRDNAKNTVYLQMNSLKPEDTAVYYCNVRQYTDGLKYDYWGQGTQVTVSS”, “low polyreactivity”; in that of “QVQLVESGGGLVQAGGSLRLSCAASGRIFRRYAMGWYRQAPGKEREFVAAITKSGGSTYYADSVKGRFTISRDNAKNTVYLQMNSLKPEDTAVYYCATYPQYYFGYDYWGQGTQVTVSS”, “high polyreactivity”.
On to “QVQLVESGGGLVQAGGSLRLSCAASGFTFSSYTMGWYRQAPGKERELVAAISRRTGRTYYADSVKGRFTISRDNAKNTVYLQMNSLKPEDTEVYYCAARPYWSYRRYDYWGQGTQVTVSS”, for which the “polyreactivity (PSR sort gate)” value was “high polyreactivity”.
